The nature of the series: Isoelectric point of reporter kinases (Table 2). Format: physicochemical.

B1: S. acidocaldarius: Adenylate kinase (AK) from Sulfolobus acidocaldarius, trimer; reporter kinase (protein, UniProt P35028 1-194, looked up)
Adenylate kinase: MKIGIVTGIPGVGKSTVLAKVKEILDNQGINNKIINYGDFMLATALKLGYAKDRDEMRKLSVEKQKKLQIDAAKGIAEEARAGGEGYLFIDTHAVIRTPSGYLPGLPSYVITEINPSVIFLLEADPKIILSRQKRDTTRNRNDYSDESVILETINFARYAATASAVLAGSTVKVIVNVEGDPSIAANEIIRSMK
For B1, the “pI Actual (if known)” value is recorded as greater than 10.

B2: T. maritima: Adenylate kinase (AK) from Thermotoga maritima, monomer; reporter kinase (protein, UniProt Q9X1I8 1-220, looked up)
Adenylate kinase: MMAYLVFLGPPGAGKGTYAKRLQEITGIPHISTGDIFRDIVKKENDELGKKIKEIMERGELVPDELVNEVVKRRLSEKDCERGFILDGYPRTVAQAEFLDGFLKTQNKELTAAVLFEVPEEVVVQRLTARRICPKCGRIYNLISLPPKEDELCDDCKVKLVQREDDKEETVRHRYKVYLEKTQPVIDYYDKKGILKRVDGTIGIDNVIAEVLKIIGWSDK
With B2, the “pI Actual (if known)” value is roughly 6.7.
